The text below walks through data of article PMC6326798.

Assay [1] addresses C. thermophilum CENP-I residues 1-229 (ctCENP-I^NT), untagged. Put plainly: GST pull-down. The note with it: in the presence of thCENP-K; parent: est. 1.0; read off a plot.
In assay [2] the target is thCENP-H/K complex (full-length thCENP-H with full-length thCENP-K) (Thielavia terrestris). The assay is described as follows: AUC; sedimentation velocity, 4°C, 42 000 rpm, PBS; continuous c(s) model in SEDFIT.
Assay [3] has as its target full-length T. terrestris CENP-K (thCENP-K) (Thielavia terrestris). The assay is described as above.
The target in assay [4] is T1, GST-thCENP-K^ΔN75.
T1 chain: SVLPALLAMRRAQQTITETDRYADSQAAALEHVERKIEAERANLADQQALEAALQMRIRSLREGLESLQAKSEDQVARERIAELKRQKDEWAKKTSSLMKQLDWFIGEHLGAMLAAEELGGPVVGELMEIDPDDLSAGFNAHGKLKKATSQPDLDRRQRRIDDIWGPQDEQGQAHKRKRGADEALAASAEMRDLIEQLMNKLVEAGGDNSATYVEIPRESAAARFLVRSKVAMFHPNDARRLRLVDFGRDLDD
Put plainly: GST pull-down. The note with it: chain shown with the change;; parent: est. 1.0; read off a plot.

Assay [5] has as its target T2, GST-thCENP-K^FL (full-length T. terrestris CENP-K with N-terminal GST).
T2 chain: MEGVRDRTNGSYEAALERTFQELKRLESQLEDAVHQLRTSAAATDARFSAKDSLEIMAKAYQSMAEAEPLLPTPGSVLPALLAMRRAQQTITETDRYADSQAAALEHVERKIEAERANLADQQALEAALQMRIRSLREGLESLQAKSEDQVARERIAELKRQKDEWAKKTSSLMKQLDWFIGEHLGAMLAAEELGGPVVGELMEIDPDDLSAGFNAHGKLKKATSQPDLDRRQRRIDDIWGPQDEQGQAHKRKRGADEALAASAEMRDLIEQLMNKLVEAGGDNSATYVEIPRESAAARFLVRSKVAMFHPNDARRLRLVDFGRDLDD
The assay is described as follows: GST pull-down. The note with it: chain shown with the change;; parent: est. 1.0; read off a plot.

Assay [6] has as its target T3, GST-ctCENP-I^NT.
T3 chain: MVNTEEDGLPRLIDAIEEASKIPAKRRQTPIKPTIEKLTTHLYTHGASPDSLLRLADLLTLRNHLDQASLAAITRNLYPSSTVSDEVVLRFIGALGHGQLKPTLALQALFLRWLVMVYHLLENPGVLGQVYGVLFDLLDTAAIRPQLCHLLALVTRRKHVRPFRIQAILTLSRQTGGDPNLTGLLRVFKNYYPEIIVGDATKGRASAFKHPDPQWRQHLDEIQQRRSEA
Put plainly: GST pull-down. The note with it: chain shown with the change;; parent: est. 1.0; read off a plot.

On to GST-thCENP-H WT I205A; L219A, for which, in assay [1], the ratio to parent was found to be 0.63.
Take “C. thermophilum CENP-I residues 1-229 (ctCENP-I^NT), untagged (domain or fragment)”: in assay [2], the stoichiometry N stood at 1.
“full-length T. terrestris CENP-H (thCENP-H) (natural protein)”: the stoichiometry N in assay [3] was determined as 1.
Take GST-thCENP-H WT R220E; L224A: the ratio to parent in assay [1] is 0.2.

B1: full-length T. terrestris CENP-H (thCENP-H) L219A (protein)
chain: MAATASTATPTPLPHFTEREASVLALYDRLRQLQLELALLTSQRSHGVIETSASRRAENDLAVDEARLLEARATLDLRDSVVENVVTLQPILNAVHHATHASPLERDLLPYTEQRDATATKVASLCADLDSAWGRLAELETESLRATQRNMELASEVLRLAAGTNDKTPSQLEGGRLEMELAGHEAEMKSNRRRWRIMKGAASAIVAGSGIDWVRDERARDLVLDLPD
On to B1, for which the ratio to parent in assay [4] was 0.68; in assay [5], 0.89.

B2: full-length T. terrestris CENP-H (thCENP-H) I205A; I211A (protein)
chain: MAATASTATPTPLPHFTEREASVLALYDRLRQLQLELALLTSQRSHGVIETSASRRAENDLAVDEARLLEARATLDLRDSVVENVVTLQPILNAVHHATHASPLERDLLPYTEQRDATATKVASLCADLDSAWGRLAELETESLRATQRNMELASEVLRLAAGTNDKTPSQLEGGRLEMELAGHEAEMKSNRRRWRIMKGAASAAVAGSGADWVRDERLRDLVLDLPD
Turning to B2, the figures for the ratio to parent in assay [4], in assay [6] and in assay [5] were 0.33, 1.1 and 0.88, respectively.

B3: full-length T. terrestris CENP-H (thCENP-H) I205A; L219A (protein)
chain: MAATASTATPTPLPHFTEREASVLALYDRLRQLQLELALLTSQRSHGVIETSASRRAENDLAVDEARLLEARATLDLRDSVVENVVTLQPILNAVHHATHASPLERDLLPYTEQRDATATKVASLCADLDSAWGRLAELETESLRATQRNMELASEVLRLAAGTNDKTPSQLEGGRLEMELAGHEAEMKSNRRRWRIMKGAASAAVAGSGIDWVRDERARDLVLDLPD
With B3, the ratio to parent in assay [4] is 0.36; in assay [6] it was 1.1; in assay [5], 0.9.

B4: full-length T. terrestris CENP-H (thCENP-H) I205A (protein)
chain: MAATASTATPTPLPHFTEREASVLALYDRLRQLQLELALLTSQRSHGVIETSASRRAENDLAVDEARLLEARATLDLRDSVVENVVTLQPILNAVHHATHASPLERDLLPYTEQRDATATKVASLCADLDSAWGRLAELETESLRATQRNMELASEVLRLAAGTNDKTPSQLEGGRLEMELAGHEAEMKSNRRRWRIMKGAASAAVAGSGIDWVRDERLRDLVLDLPD
Consider B4, for which the ratio to parent in assay [4] is 0.65; in assay [6], 1.1; in assay [5], 0.94.

B5: full-length T. terrestris CENP-H (thCENP-H) R220E (protein)
chain: MAATASTATPTPLPHFTEREASVLALYDRLRQLQLELALLTSQRSHGVIETSASRRAENDLAVDEARLLEARATLDLRDSVVENVVTLQPILNAVHHATHASPLERDLLPYTEQRDATATKVASLCADLDSAWGRLAELETESLRATQRNMELASEVLRLAAGTNDKTPSQLEGGRLEMELAGHEAEMKSNRRRWRIMKGAASAIVAGSGIDWVRDERLEDLVLDLPD
Regarding B5, the ratio to parent in assay [4] turned out to be 1.1; in assay [6], 0.32; in assay [5], 0.97.

B6: full-length T. terrestris CENP-H (thCENP-H) R220E; L224A (protein)
chain: MAATASTATPTPLPHFTEREASVLALYDRLRQLQLELALLTSQRSHGVIETSASRRAENDLAVDEARLLEARATLDLRDSVVENVVTLQPILNAVHHATHASPLERDLLPYTEQRDATATKVASLCADLDSAWGRLAELETESLRATQRNMELASEVLRLAAGTNDKTPSQLEGGRLEMELAGHEAEMKSNRRRWRIMKGAASAIVAGSGIDWVRDERLEDLVADLPD
B6: the ratio to parent in assay [4] is 1.1; in assay [6] it was 0.13.

B7: full-length T. terrestris CENP-H (thCENP-H) W213A (protein)
chain: MAATASTATPTPLPHFTEREASVLALYDRLRQLQLELALLTSQRSHGVIETSASRRAENDLAVDEARLLEARATLDLRDSVVENVVTLQPILNAVHHATHASPLERDLLPYTEQRDATATKVASLCADLDSAWGRLAELETESLRATQRNMELASEVLRLAAGTNDKTPSQLEGGRLEMELAGHEAEMKSNRRRWRIMKGAASAIVAGSGIDAVRDERLRDLVLDLPD
For B7, the ratio to parent in assay [6] came out at 1.2; in assay [5] it was 0.97.

B8: full-length T. terrestris CENP-H (thCENP-H) I211A; L219A (protein)
chain: MAATASTATPTPLPHFTEREASVLALYDRLRQLQLELALLTSQRSHGVIETSASRRAENDLAVDEARLLEARATLDLRDSVVENVVTLQPILNAVHHATHASPLERDLLPYTEQRDATATKVASLCADLDSAWGRLAELETESLRATQRNMELASEVLRLAAGTNDKTPSQLEGGRLEMELAGHEAEMKSNRRRWRIMKGAASAIVAGSGADWVRDERARDLVLDLPD
For B8, the ratio to parent in assay [4] was 0.46; in assay [6], 1.2.

B9: full-length T. terrestris CENP-H (thCENP-H) I211A (protein)
chain: MAATASTATPTPLPHFTEREASVLALYDRLRQLQLELALLTSQRSHGVIETSASRRAENDLAVDEARLLEARATLDLRDSVVENVVTLQPILNAVHHATHASPLERDLLPYTEQRDATATKVASLCADLDSAWGRLAELETESLRATQRNMELASEVLRLAAGTNDKTPSQLEGGRLEMELAGHEAEMKSNRRRWRIMKGAASAIVAGSGADWVRDERLRDLVLDLPD
With B9, the ratio to parent in assay [4] was 0.7; in assay [6] it was 1.2; in assay [5], 0.95.

B10: full-length T. terrestris CENP-H (thCENP-H) L224A (protein)
chain: MAATASTATPTPLPHFTEREASVLALYDRLRQLQLELALLTSQRSHGVIETSASRRAENDLAVDEARLLEARATLDLRDSVVENVVTLQPILNAVHHATHASPLERDLLPYTEQRDATATKVASLCADLDSAWGRLAELETESLRATQRNMELASEVLRLAAGTNDKTPSQLEGGRLEMELAGHEAEMKSNRRRWRIMKGAASAIVAGSGIDWVRDERLRDLVADLPD
For the molecule B10, the ratio to parent in assay [4] came out at 1.1; in assay [6], 0.36.

As a reminder, the stoichiometry N is a count of units in the complex or per binding partner.
